Measurements: patent US20250051465A1 (published 2025)

T1: human LEPR extracellular domain expressed with a C-terminal mouse IgG2a Fc tag (hLEPR.mFc) (human)
T1 construct: also called dimeric human LEPR
T1 chain: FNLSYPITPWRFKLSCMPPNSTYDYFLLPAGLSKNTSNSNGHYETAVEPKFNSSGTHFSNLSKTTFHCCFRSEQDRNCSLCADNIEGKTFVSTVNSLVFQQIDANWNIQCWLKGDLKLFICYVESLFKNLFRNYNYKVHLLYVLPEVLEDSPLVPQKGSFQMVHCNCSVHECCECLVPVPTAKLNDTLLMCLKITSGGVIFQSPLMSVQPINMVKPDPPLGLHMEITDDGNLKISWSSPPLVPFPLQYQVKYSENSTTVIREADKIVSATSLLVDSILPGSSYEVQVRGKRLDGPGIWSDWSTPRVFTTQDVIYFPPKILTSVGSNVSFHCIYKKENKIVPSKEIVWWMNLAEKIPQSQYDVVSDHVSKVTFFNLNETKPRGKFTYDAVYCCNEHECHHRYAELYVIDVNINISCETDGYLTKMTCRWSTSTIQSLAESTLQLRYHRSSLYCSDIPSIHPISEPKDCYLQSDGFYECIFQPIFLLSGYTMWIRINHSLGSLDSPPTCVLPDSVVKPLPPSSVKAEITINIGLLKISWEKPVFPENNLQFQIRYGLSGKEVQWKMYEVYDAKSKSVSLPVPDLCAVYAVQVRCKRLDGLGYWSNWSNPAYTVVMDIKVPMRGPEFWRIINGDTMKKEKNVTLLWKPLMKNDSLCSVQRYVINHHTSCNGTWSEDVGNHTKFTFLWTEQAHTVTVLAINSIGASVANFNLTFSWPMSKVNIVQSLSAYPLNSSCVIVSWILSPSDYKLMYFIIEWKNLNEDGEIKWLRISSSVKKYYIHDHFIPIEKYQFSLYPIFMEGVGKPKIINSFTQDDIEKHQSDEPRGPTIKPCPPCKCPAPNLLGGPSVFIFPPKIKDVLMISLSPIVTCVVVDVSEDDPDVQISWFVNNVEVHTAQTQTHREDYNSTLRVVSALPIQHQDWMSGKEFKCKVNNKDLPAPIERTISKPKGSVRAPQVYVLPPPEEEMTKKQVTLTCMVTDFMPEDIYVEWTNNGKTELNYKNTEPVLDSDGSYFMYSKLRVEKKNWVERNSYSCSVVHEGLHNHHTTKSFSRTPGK

T2: full length human LEPR on cells (human, UniProt P48357 22-1165)
T2 sequence: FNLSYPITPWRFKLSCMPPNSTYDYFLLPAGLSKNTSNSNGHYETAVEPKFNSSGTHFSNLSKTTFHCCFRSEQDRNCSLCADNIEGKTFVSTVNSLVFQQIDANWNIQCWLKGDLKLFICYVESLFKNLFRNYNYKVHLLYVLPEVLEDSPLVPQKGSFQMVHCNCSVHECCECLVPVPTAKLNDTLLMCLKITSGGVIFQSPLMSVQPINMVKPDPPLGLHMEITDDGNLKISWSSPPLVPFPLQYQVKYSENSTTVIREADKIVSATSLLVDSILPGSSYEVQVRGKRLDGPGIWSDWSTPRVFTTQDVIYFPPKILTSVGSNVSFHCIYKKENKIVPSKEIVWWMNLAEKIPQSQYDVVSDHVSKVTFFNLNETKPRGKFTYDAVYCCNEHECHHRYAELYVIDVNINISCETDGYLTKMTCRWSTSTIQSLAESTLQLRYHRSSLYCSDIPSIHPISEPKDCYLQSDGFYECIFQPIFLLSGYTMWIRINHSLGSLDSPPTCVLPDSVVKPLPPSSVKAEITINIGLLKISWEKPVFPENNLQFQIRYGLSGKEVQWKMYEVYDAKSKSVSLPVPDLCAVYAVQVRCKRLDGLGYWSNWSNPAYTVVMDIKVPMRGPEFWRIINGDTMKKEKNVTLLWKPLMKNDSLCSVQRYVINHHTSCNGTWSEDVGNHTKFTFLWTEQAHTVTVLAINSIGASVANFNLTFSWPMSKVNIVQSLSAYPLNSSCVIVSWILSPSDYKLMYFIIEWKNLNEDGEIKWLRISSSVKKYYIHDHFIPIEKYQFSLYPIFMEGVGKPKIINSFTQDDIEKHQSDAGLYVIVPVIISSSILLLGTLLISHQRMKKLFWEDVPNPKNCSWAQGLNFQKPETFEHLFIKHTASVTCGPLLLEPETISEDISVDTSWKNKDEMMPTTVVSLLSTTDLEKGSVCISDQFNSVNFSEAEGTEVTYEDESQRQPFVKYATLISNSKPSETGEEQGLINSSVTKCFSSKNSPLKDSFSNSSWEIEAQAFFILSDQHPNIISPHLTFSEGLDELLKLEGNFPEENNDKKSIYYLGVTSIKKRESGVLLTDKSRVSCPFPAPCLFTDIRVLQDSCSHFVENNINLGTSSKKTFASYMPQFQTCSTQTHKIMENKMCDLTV


Assays:
[1] = molecular target: T3, human LEPR extracellular domain expressed with a C-terminal myc-myc-hexahistidine tag (hLEPR.mmh) (human, UniProt P48357 22-839); assay: SPR, captured mAb, 25C
T3 construct: also called human LEPR-MMH; monomeric human LEPR
Procedure: (§1) Equilibrium dissociation constants (KD values) for LEPR binding to purified anti-LEPR monoclonal antibodies were determined using a real-time surface plasmon resonance biosensor using a Biacore 4000 instrument. All binding studies were performed in 10 mM HEPES, 150 mM NaCl, 3 mM EDTA, and 0.05% v/v Surfactant Tween-20, pH 7.4 (HBS-ET) running buffer at 25° C. and 37° C. The Biacore sensor surface was first derivatized by amine coupling with a monoclonal mouse anti-human Fc antibody (GE, #BR-1008-39) to capture anti-LEPR monoclonal antibodies. […] Kinetic association (kₐ) and dissociation (kd) rate constants were determined by fitting the real-time binding sensorgrams to a 1:1 binding model with mass transport limitation using Scrubber 2.0c curve-fitting software. Binding dissociation equilibrium constants (KD) and dissociative half-lives (t½) were calculated from the kinetic rate constants as: […]

[2] = molecular target: T4, Macaca fascicularis LEPR extracellular domain expressed with a C-terminal myc-myc-hexahistidine tag … (Macaca fascicularis, UniProt Q9MYL0 22-837 (rhesus entry)); assay: SPR, captured mAb, 25C
T4 construct: also called mfLEP.MMH
Procedure: as §1

[3] = molecular target: T1, human LEPR extracellular domain …; assay: SPR, captured mAb, 25C
Procedure: as §1

[4] = molecular target: T2, full length human LEPR on cells; assay: cell-based or functional assay

Row | Binder | 100 nM hLEPR-MMH Bound (RU) [1] [RU] | Kd [1] [nM] | koff [1] [s⁻¹] | kon [1] [M⁻¹ s⁻¹] | t½ [1] [min] | 100 nM mfLEP.MMH Bound (RU) [2] [RU] | Kd [2] [nM] | koff [2] [s⁻¹] | kon [2] [M⁻¹ s⁻¹] | t½ [2] [min] | 100 nM hLEPR-mFc Bound (RU) [3] [RU] | Kd [3] [nM] | koff [3] [s⁻¹] | kon [3] [M⁻¹ s⁻¹] | t½ [3] [min] | % activation, with 200 pM human Leptin [4] [%] | % activation, without human Leptin [4] [%] | EC50, STAT3-Luc reporter, with 200 pM human Leptin [4] [M] | EC50, STAT3-Luc reporter, without human Leptin [4] [nM]
1 | H4H16650P2 (antibody, human IgG4, V domains shown, Fully human antibody with human IgG4 Fc (H4H prefix)) VH: QVQLVESGGGVVQPGKSLRLSCVASGFTFSSDAMYWVRQAPGKGLEWVAVIYYDGNYQYYEDSVKGRFTISRDNSQNTLDLQMNSLRVDDTAVYFCARLNWDYWYLDLWGRGTLVTVSS VL: not shown | 51 | 7.93 | 0.000223 | 28100 | 52 | 93 | 2.27 | 0.000137 | 60200 | 84 | 102 | 0.785 | 8.32e-05 | 106000 | 139 | 88 | 68 | 5.19e-11 | 0.0619
2 | H4H18449P2 (antibody, human IgG4, V domains shown, Fully human antibody with human IgG4 Fc (H4H prefix)) VH: EVQLVESGGGLVQPGGSLRLSCVASGFTFNKYDMHWVRQTTGKGLEWVSGIDTDGDTYYPGSVKGRFTISRENAENSLYLQMNGLRVGDTAVYYCARWPWSGFYGAFDIWGQGTMVTVSS VL: not shown | 54 | 8.08 | 0.000235 | 29100 | 49 |  |  |  |  |  | 116 | 0.964 | 6.82e-05 | 70500 | 169 | 66 | 13 | 5.23e-11 | 0.212
3 | H4H16679P2 (antibody, human IgG4, V domains shown, Fully human antibody with human IgG4 Fc (H4H prefix)) VH: QVQLVESGGGVVQPGRSLRLSCTASGFTFSSYAMYWVRQAPGKGLEWVSVIYYDGSYKYYADSVKGRFTISRDNSKNTLYLQMDSLRAEDTAVYYCASYNWNYWYFDFWGRGTLVTVSS VL: not shown | 39 | 10.5 | 0.000246 | 23400 | 47 | 66 | 3.22 | 0.000141 | 43700 | 82 | 78 | 1.66 | 9.68e-05 | 58400 | 119 | 88 | 65 | 7.37e-11 | 0.0862
4 | H4H17321P2 (antibody, human IgG4, V domains shown, Fully human antibody with human IgG4 Fc (H4H prefix)) VH: QVQLVESGGGVVQPGRSLRLSCEASGFSSSDNAMYWVRQAPGKGLEWVSVIYHDGSYKYYEDSVKGRFTIARDNSKNTLYLQMNSLRAEDTAVYYCARYNWNHWYFDVWGRGTLVTVSS VL: not shown | 32 | 8.31 | 0.000196 | 23600 | 59 | 75 | 4.07 | 0.000133 | 32600 | 87 | 65 | 2.18 | 8.93e-05 | 41000 | 129 | 76 | 66 | 2.57e-10 | 0.207
5 | H4H18417P2 (antibody, human IgG4, V domains shown, Fully human antibody with human IgG4 Fc (H4H prefix)) VH: QVQLVESGGGVVQPGRSLRLSCAASGFTFSTYGMHWVRQAPGKGLEWVSVISYDESNKYYADSVKGRFTISRDNSKNALYLQMNSLRNEDTAVYYCARDRPFGLVTGWFDPWGQGTLVTVSS VL: not shown | 28 | 129 | 0.0079 | 61400 | 1.5 | 33 | 139 | 0.0123 | 88300 | 0.9 | 90 | 4.04 | 0.000563 | 140000 | 21 | 87 | 5 | 5.23e-10 | 0.153
6 | H4H18445P2 (antibody, human IgG4, V domains shown, Fully human antibody with human IgG4 Fc (H4H prefix)) VH: QVQLQESGPGLVKPSQTLSLTCTVSGGSISSGGDYWSWIRQLPGKGLEWIGYIYYSGSAYYNPSLKSRGTISIDTSKNQFSLKLTSVTAADTAVYFCVKLRFLEWFLGGWFGPWGQGTLVTVSS VL: not shown | 45 | 108 | 0.00478 | 44200 | 2.4 | 58 | 82.4 | 0.00486 | 59000 | 2.4 | 76 | 4.03 | 0.000492 | 122000 | 23 | 97 | 5 | 4.1e-10 | 11.9
7 | H4H18438P2 (antibody, human IgG4, V domains shown, Fully human antibody with human IgG4 Fc (H4H prefix)) VH: QVQLVESGGGVVQPGRSLRLSCAASGFSFNTYGMHWVRQAPGKGLEWVTIIWYDGSIKYYADSVKGRFTISRDNSKNTLYLQMNSLRAEDTAVYYCARGGYSGYLYFDYWGQGTLVTVSS VL: not shown | 22 | 75.4 | 0.00226 | 30000 | 5.1 |  |  |  |  |  | 51 | 4.7 | 0.000244 | 51900 | 47 | 76 | 5 | 2.02e-11 | 1.49
